{"source": "patent US6821739B2", "about": "“Methods of diagnosing and treating Crohn's disease using Pseudomonas antigens” (The Regents of the University of California, priority 2000, dated 2004)", "molecules": {"B1": {"name": "PFTR: P. fluorescens polypeptide of 198 amino acids (SEQ ID NO: 5), similar to bacterial ferrodoxins (protein)", "chain": "MRTMVDSGQLTDPESARGKLLQTAAHLFRNKGFERTTVRDLASAVGIQSGSIFHHFKSKDEILRAVMEETTHYNTAMMRASLEEASTVRERVLALIRCKLQSIMGGSGEAMAVLVYEWRSLSAEGQAHVLALRDVYEQIWLQVLGEAKAAGYIRGDVFITRRFLTGALSWTTTWFRAQGSLTLEELAEEALLMVLKSD", "modifications": "P. fluorescens"}}, "system": "CD4+ T cells from C57BL/6J mice", "format": "cell-based, mouse", "conditions": "72 hours", "data": [{"molecule": "B1", "values": [{"measurement": "stimulation of CD4+ T cell proliferation", "value": "strongly stimulated"}]}]}
